Experimental findings from US10428140B2, “Anti-EphA4 antibody” (EISAI R&D MANAGEMENT CO., LTD., priority 2015, dated 2019) are described below.

Substitutions are numbered along the chain they refer to.

As a reminder, the Kd is the equilibrium constant for the complex coming apart. The low end stands for a tighter complex, the high end for a looser complex. One may read the IC50 as the point on the concentration scale where inhibition reaches its midpoint. Higher therefore signals a need for much substance.

First the molecules themselves.
B1: 69 (antibody, V domains shown)
VH: QIQLVQSGSELKKPGASVKVSCKASGYTFTDYSMHWVRQAPGQGLKWMGWINTETGEPTYADDFKGRFVFSLDTSVSTAYLQISSLKAEDTAVYYCARIPLYYYGSRYWYFDVWGQGTTVTVSS
VL: DIQMTQSPSSLSASVGDRVTITCRASENIYRNLAWYQQKPGKAPKLLVYAATNLADGVPSRFSGSGSGTDYTLTISSLQPEDFATYYCQHFWGTPWTFGQGTKVEIK
modifications: synthetic humanized antibody heavy chain variable region sequence; synthetic humanized antibody light chain variable region sequence
B2: 87 (antibody, V domains shown)
VL: B1 VL with K45Q, V48L
VH: B1 VH with I2V, K46E, D62Q, D63G, K65T
modifications: constant regions without entry; synthetic humanized antibody light chain variable region sequence; synthetic humanized antibody heavy chain variable region sequence
B3: 88 (antibody, V domains shown)
VL: B1 VL with K45Q, V48L
VH: B1 VH with I2V, D62Q, D63G, K65T
modifications: constant regions without entry; synthetic humanized antibody light chain variable region sequence; synthetic humanized antibody heavy chain variable region sequence
B4: 84 (antibody, V domains shown)
VL: B1 VL with V48L, P80S
VH: B1 VH with I2V, K46E
modifications: constant regions without entry; synthetic humanized antibody light chain variable region sequence; synthetic humanized antibody heavy chain variable region sequence
B5: 85 (antibody, V domains shown)
VL: B1 VL with V48L, P80S
VH: B1 VH with I2V
modifications: constant regions without entry; synthetic humanized antibody light chain variable region sequence; synthetic humanized antibody heavy chain variable region sequence
B6: 86 (antibody, V domains shown)
VL: B1 VL with V48L, P80S
VH: B1 VH
modifications: constant regions without entry; synthetic humanized antibody light chain variable region sequence; synthetic humanized antibody heavy chain variable region sequence
B7: 83 (antibody, V domains shown)
VL: B1 VL with V48L, P80S
VH: B1 VH with D62Q, D63G, K65T
modifications: constant regions without entry; synthetic humanized antibody light chain variable region sequence; synthetic humanized antibody heavy chain variable region sequence
B8: 82 (antibody, V domains shown)
VL: B1 VL with V48L, P80S
VH: B1 VH with I2V, D62Q, D63G, K65T
modifications: constant regions without entry; synthetic humanized antibody light chain variable region sequence; synthetic humanized antibody heavy chain variable region sequence
B9: 81 (antibody, V domains shown)
VL: B1 VL with V48L, P80S
VH: B1 VH with I2V, K46E, D62Q, D63G, K65T
modifications: constant regions without entry; synthetic humanized antibody light chain variable region sequence; synthetic humanized antibody heavy chain variable region sequence
B10: antibody A: mouse anti-EphA4 monoclonal antibody, IgG1/κ; heavy chain variable region SEQ ID NO: 11, light chain variable region SEQ ID NO: 13 (antibody, listed as Mus musculus, V domains shown)
VH: QIQLVQSGPELKKPGETVKISCKASGYTFTDYSMHWVKQAPGKGLKWMGWINTETGEPTYADDFKGRFAFSLETSASTAYLQINNLKNEDTATYFCARIPLYYYGSRYWYFDVWGAGTTVTVSS
VL: DIQMTQSPASLSVSVGETVTITCRASENIYRNLAWYQQKQGKSPQLLVYAATNLADGVPSRFSGSGSGTQYSLKINSLQSEDFGSYYCQHFWGTPWTFGGGTKLEIK
B11: 156 (antibody, V domains shown)
VH: B1 VH with D62Q, D63G, K65T
VL: B1 VL with K45Q, V48L
modifications: synthetic humanized antibody heavy chain variable region sequence; synthetic humanized antibody light chain variable region sequence
B12: 136 (antibody, V domains shown)
VH: B1 VH with I2V
VL: EIVMTQSPATLSVSPGERATLSCRASENIYRNLAWYQQKPGQSPRLLIYAATNLADGIPARFSGSGSGTEYTLTISSLQSEDFAVYYCQHFWGTPWTFGQGTKVEIK
modifications: synthetic humanized antibody heavy chain variable region sequence; synthetic humanized antibody light chain variable region sequence

In the first assay the target is T1, human EphA4 (Homo sapiens, UniProt P54764).
T1 construct: made in house; not restated for the human SEAP-His protein
T1 sequence (P54764 20-547): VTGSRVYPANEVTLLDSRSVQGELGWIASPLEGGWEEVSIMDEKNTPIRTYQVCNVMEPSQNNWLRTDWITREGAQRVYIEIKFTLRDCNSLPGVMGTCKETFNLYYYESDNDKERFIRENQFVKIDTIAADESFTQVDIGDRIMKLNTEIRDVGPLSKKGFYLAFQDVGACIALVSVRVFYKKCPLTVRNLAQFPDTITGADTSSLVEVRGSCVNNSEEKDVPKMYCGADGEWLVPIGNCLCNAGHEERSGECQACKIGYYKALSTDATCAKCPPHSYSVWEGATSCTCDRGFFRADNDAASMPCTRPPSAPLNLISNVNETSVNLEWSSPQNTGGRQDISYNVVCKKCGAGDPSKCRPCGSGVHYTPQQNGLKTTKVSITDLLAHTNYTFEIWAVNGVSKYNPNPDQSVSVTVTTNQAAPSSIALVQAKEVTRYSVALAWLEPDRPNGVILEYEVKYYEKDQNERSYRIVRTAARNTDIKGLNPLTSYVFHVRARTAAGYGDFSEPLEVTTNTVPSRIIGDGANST
The assay can be described thus: Affinity of humanized antibodies by SPR (Biacore T200). In kind it is binding. To be noted: human EphA4 extracellular region-SEAP-His; 1:1 binding model. On the procedure:
The binding affinity of each anti-EphA4 monoclonal humanized antibody obtained in Example 16 for human EphA4 was determined by surface plasmon resonance (SPR) using Biacore T200 (GE Healthcare). First, for the assay of antibody A, a rat anti-mouse IgG1 antibody produced with a conventional method by immunizing rat with mouse IgG1 antibody was immobilized on sensor chip CM5. The immobilization of the rat anti-mouse IgG1 antibody on sensor chip CM5 was performed by the amine coupling method using N-hydroxysuccinimide (NHS) and N-ethyl-N′-(3-dimethylaminopropyl)carbodiimide hydrochloride (EDC). Ethanolamine was used in blocking (the sensor chip and the reagents for immobilization were all manufactured by GE Healthcare). The antibody was diluted with a buffer solution for immobilization (10 mM sodium acetate, pH 4.5) and immobilized on the sensor chip according to the protocol attached to Biacore T200. For the assay of each humanized monoclonal antibody, a protein A chip (GE Healthcare, 29-1383-03) was used. Antibody A or the humanized monoclonal antibody was diluted with a running buffer solution HBS-EP (GE Healthcare), injected onto only flow cell 2 for 120 seconds, and captured (captured amount: approximately 30 to 60 RU). Subsequently, human EphA4 extracellular region-SEAP-His protein serially diluted in the range of 50, 16.7, 5.6, 1.9, and 0.6 nM using HBS-EP was sequentially added from the lower toward higher concentration sides without regeneration operation. Binding reaction curves were sequentially observed at the time of the addition (association phase, for 120 sec) and after the completion of the addition (dissociation phase, for 900 sec). After the completion of each observation, the sensor chip was regenerated by the addition of 3 M MgCl2 (for 60 sec) or 10 mM Glycine-HCl pH 1.5 (for 30 sec). The obtained binding reaction curves were subjected to fitting analysis with 1:1 binding models using software BIA evaluation attached to the system to calculate the affinity (KD=kd/ka) for human EphA4 (Table 6).
(SPR reads the build-up and loss of mass on a sensor chip optically.)
Molecule B1 came in with a ka of 340000 M⁻¹ s⁻¹ and a kd of 0.00037 s⁻¹.
For B2 the same measures were 350000 M⁻¹ s⁻¹ and 0.00051 s⁻¹.
The matching figures for B3: 300000 M⁻¹ s⁻¹ and 0.00042 s⁻¹.
The matching figures for B4: 350000 M⁻¹ s⁻¹ and 0.00056 s⁻¹.
Molecule B5 displayed a ka of 310000 M⁻¹ s⁻¹ and a kd of 0.0005 s⁻¹.
B6 registered a ka of 310000 M⁻¹ s⁻¹ and a kd of 0.00046 s⁻¹.
For B7 the same measures were 290000 M⁻¹ s⁻¹ and 0.00054 s⁻¹.
For B8 the same measures were 290000 M⁻¹ s⁻¹ and 0.00046 s⁻¹.
For B9 the same measures were 340000 M⁻¹ s⁻¹ and 0.00054 s⁻¹.
B10 gave a ka of 420000 M⁻¹ s⁻¹ and a kd of 0.00025 s⁻¹.

The assay is the same for the next values; noted with them: human EphA4 extracellular region-SEAP-His; KD=kd/ka.
In the case of B1, the equilibrium dissociation constant (Kd) was found to be 1.1 nM.
Same read-out and setting: then B2, with 1.5 nM; and B3, with 1.4 nM.
For B4, binding was characterised by a dissociation constant (Kd) of 1.7 nM.
The same measure, in the same setting: then B5, with 1.6 nM; and B6, with 1.5 nM; and B7, with 1.9 nM.
The molecule B8 gave a Kd of 1.6 nM.
Consider B9, for which the affinity, expressed as Kd, was 1.6 nM.

The next assay deals with T2, human EphA4 (binding to human Ephrin A5) (Homo sapiens, UniProt P54764).
T2 construct: made in house; not restated for the human SEAP-His protein
T2 sequence (P54764 20-547): as above
Kind of assay: Human EphA4-human ligand binding inhibition ELISA of humanized antibodies (biotinylated Ephrin A5-Fc). The settings on record: biotinylated human Ephrin A5-Fc 0.7 nM. The procedure: Each anti-EphA4 monoclonal humanized antibody obtained in Example 16 was evaluated for its inhibitory activity against the binding between human EphA4 and its human ligand according to the following steps. Each well of a 96-well plate (Nunc) was coated with an anti-alkaline phosphatase antibody (Thermo Fisher Scientific). After incubation overnight at 4° C., each well was blocked with 1% BlockAce (DS Pharma Biomedical) at room temperature for 1 hour. After washing with 0.05% Tween 20/PBS (Thermo Fisher Scientific) three times, the human EphA4 extracellular region-SEAP-His protein obtained by the method of Example 2 was added (final concentration: 10 nM) to each well and incubated at room temperature for 1 hour. After washing three times, a ligand and each serially diluted humanized antibody of antibody A (0, 0.003, 0.01, 0.03, 0.1, 0.3, 1, 3, 10, 30, 100, 300, 1000, and 3000 nM) were added to each well. The ligand used was biotinylated human Ephrin A5-Fc chimera (R&D Systems, final concentration: 0.7 nM). After incubation at room temperature for 1 hour and subsequent washing three times, horseradish peroxidase-labeled streptavidin (GE Healthcare) was added thereto and incubated at room temperature for 1 hour. After washing three times, a TMBZ (3,3′,5,5′-tetramethylbenzidine, Sigma-Aldrich) solution was added to each well and incubated at room temperature for 2 minutes. An equal amount of a reaction stopping solution (1N H2SO4, Wako Pure Chemical Industries) was added to each well. The absorbance at 450 nm was read using a microplate reader (PerkinElmer).
A general note: ELISA stands for enzyme-linked immunosorbent assay.
With B1, the IC50 worked out at 3.1 nM.
On the same count and under the same terms, the value for B2 was 3 nM; that for B3 was 3.6 nM; that for B11 was 2.5 nM.
Same read-out and setting: then B4, with 4.6 nM.
In turn, B12 showed an IC50 of 2.5 nM.
On the same count and under the same terms, the value for B5 was 4 nM; that for B6 was 4 nM; that for B7 was 3.7 nM.
Same read-out and setting: the value for B8 was 4.1 nM.
Molecule B9 displayed a half-inhibitory concentration (IC50) of 4 nM. This IC50 and that of the molecule before are within 1.5-fold of each other.
